Experimental data from patent US20130210709A1 (ANCHOR THERAPEUTICS, published 2013).
Ends that are not written are not given here. * marks the point of attachment. Palmitoyl = CCCCCCCCCCCCCCCC(=O)*; NHhexadecyl = CCCCCCCCCCCCCCCCN*

B1: CXCR4 i1 loop compound 45 (peptide)
peptide: Palmitoyl-KKLRSMTDKYR-NH2
SMILES: CCCCCCCCCCCCCCCC(=O)N[C@@H](CCCCN)C(=O)N[C@@H](CCCCN)C(=O)N[C@@H](CC(C)C)C(=O)N[C@@H](CCCNC(=N)N)C(=O)N[C@@H](CO)C(=O)N[C@@H](CCSC)C(=O)N[C@H](C(=O)N[C@@H](CC(=O)O)C(=O)N[C@@H](CCCCN)C(=O)N[C@@H](Cc1ccc(O)cc1)C(=O)N[C@@H](CCCNC(=N)N)C(N)=O)[C@@H](C)O
B2: CXCR4 i1 loop compound 37 (peptide)
peptide: Palmitoyl-MGYQKKLRSMTDKY-NH2
SMILES: CCCCCCCCCCCCCCCC(=O)N[C@@H](CCSC)C(=O)NCC(=O)N[C@@H](Cc1ccc(O)cc1)C(=O)N[C@@H](CCC(N)=O)C(=O)N[C@@H](CCCCN)C(=O)N[C@@H](CCCCN)C(=O)N[C@@H](CC(C)C)C(=O)N[C@@H](CCCNC(=N)N)C(=O)N[C@@H](CO)C(=O)N[C@@H](CCSC)C(=O)N[C@H](C(=O)N[C@@H](CC(=O)O)C(=O)N[C@@H](CCCCN)C(=O)N[C@@H](Cc1ccc(O)cc1)C(N)=O)[C@@H](C)O
B3: CXCR4 i1 loop compound 35 (peptide)
peptide: Palmitoyl-VMGYQKKLRSMTD-NH2
SMILES: CCCCCCCCCCCCCCCC(=O)N[C@H](C(=O)N[C@@H](CCSC)C(=O)NCC(=O)N[C@@H](Cc1ccc(O)cc1)C(=O)N[C@@H](CCC(N)=O)C(=O)N[C@@H](CCCCN)C(=O)N[C@@H](CCCCN)C(=O)N[C@@H](CC(C)C)C(=O)N[C@@H](CCCNC(=N)N)C(=O)N[C@@H](CO)C(=O)N[C@@H](CCSC)C(=O)N[C@H](C(=O)N[C@@H](CC(=O)O)C(N)=O)[C@@H](C)O)C(C)C
B4: CXCR4 i1 loop compound 55 (peptide)
peptide: Palmitoyl-MGYQKKLRSMTDKYRLHLSV-NH2
SMILES: CCCCCCCCCCCCCCCC(=O)N[C@@H](CCSC)C(=O)NCC(=O)N[C@@H](Cc1ccc(O)cc1)C(=O)N[C@@H](CCC(N)=O)C(=O)N[C@@H](CCCCN)C(=O)N[C@@H](CCCCN)C(=O)N[C@@H](CC(C)C)C(=O)N[C@@H](CCCNC(=N)N)C(=O)N[C@@H](CO)C(=O)N[C@@H](CCSC)C(=O)N[C@H](C(=O)N[C@@H](CC(=O)O)C(=O)N[C@@H](CCCCN)C(=O)N[C@@H](Cc1ccc(O)cc1)C(=O)N[C@@H](CCCNC(=N)N)C(=O)N[C@@H](CC(C)C)C(=O)N[C@@H](Cc1c[nH]cn1)C(=O)N[C@@H](CC(C)C)C(=O)N[C@@H](CO)C(=O)N[C@H](C(N)=O)C(C)C)[C@@H](C)O
B5: CXCR4 i1 loop compound 36 (peptide)
peptide: Palmitoyl-MGYQKKLRSMTDK-NH2
SMILES: CCCCCCCCCCCCCCCC(=O)N[C@@H](CCSC)C(=O)NCC(=O)N[C@@H](Cc1ccc(O)cc1)C(=O)N[C@@H](CCC(N)=O)C(=O)N[C@@H](CCCCN)C(=O)N[C@@H](CCCCN)C(=O)N[C@@H](CC(C)C)C(=O)N[C@@H](CCCNC(=N)N)C(=O)N[C@@H](CO)C(=O)N[C@@H](CCSC)C(=O)N[C@H](C(=O)N[C@@H](CC(=O)O)C(=O)N[C@@H](CCCCN)C(N)=O)[C@@H](C)O
B6: CXCR-4 receptor Compound No. 43 (peptide)
peptide: Palmitoyl-KKLRSMTDKYRLH-NH2
SMILES: CCCCCCCCCCCCCCCC(=O)N[C@@H](CCCCN)C(=O)N[C@@H](CCCCN)C(=O)N[C@@H](CC(C)C)C(=O)N[C@@H](CCCNC(=N)N)C(=O)N[C@@H](CO)C(=O)N[C@@H](CCSC)C(=O)N[C@H](C(=O)N[C@@H](CC(=O)O)C(=O)N[C@@H](CCCCN)C(=O)N[C@@H](Cc1ccc(O)cc1)C(=O)N[C@@H](CCCNC(=N)N)C(=O)N[C@@H](CC(C)C)C(=O)N[C@@H](Cc1c[nH]cn1)C(N)=O)[C@@H](C)O
B7: CXCR4 i1 loop compound 39 (peptide)
peptide: Palmitoyl-MGYQKKLRSMTDKYRLHL-NH2
SMILES: CCCCCCCCCCCCCCCC(=O)N[C@@H](CCSC)C(=O)NCC(=O)N[C@@H](Cc1ccc(O)cc1)C(=O)N[C@@H](CCC(N)=O)C(=O)N[C@@H](CCCCN)C(=O)N[C@@H](CCCCN)C(=O)N[C@@H](CC(C)C)C(=O)N[C@@H](CCCNC(=N)N)C(=O)N[C@@H](CO)C(=O)N[C@@H](CCSC)C(=O)N[C@H](C(=O)N[C@@H](CC(=O)O)C(=O)N[C@@H](CCCCN)C(=O)N[C@@H](Cc1ccc(O)cc1)C(=O)N[C@@H](CCCNC(=N)N)C(=O)N[C@@H](CC(C)C)C(=O)N[C@@H](Cc1c[nH]cn1)C(=O)N[C@@H](CC(C)C)C(N)=O)[C@@H](C)O
B8: CXCR4 i1 loop compound 46 (peptide)
peptide: Palmitoyl-KKLRSMTDKY-NH2
SMILES: CCCCCCCCCCCCCCCC(=O)N[C@@H](CCCCN)C(=O)N[C@@H](CCCCN)C(=O)N[C@@H](CC(C)C)C(=O)N[C@@H](CCCNC(=N)N)C(=O)N[C@@H](CO)C(=O)N[C@@H](CCSC)C(=O)N[C@H](C(=O)N[C@@H](CC(=O)O)C(=O)N[C@@H](CCCCN)C(=O)N[C@@H](Cc1ccc(O)cc1)C(N)=O)[C@@H](C)O
B9: CXCR4 i1 loop compound 69 (peptide)
peptide: Palmitoyl-SGYQKKLRSSTD-NH2
SMILES: CCCCCCCCCCCCCCCC(=O)N[C@@H](CO)C(=O)NCC(=O)N[C@@H](Cc1ccc(O)cc1)C(=O)N[C@@H](CCC(N)=O)C(=O)N[C@@H](CCCCN)C(=O)N[C@@H](CCCCN)C(=O)N[C@@H](CC(C)C)C(=O)N[C@@H](CCCNC(=N)N)C(=O)N[C@@H](CO)C(=O)N[C@@H](CO)C(=O)N[C@H](C(=O)N[C@@H](CC(=O)O)C(N)=O)[C@@H](C)O
B10: CXCR4 i1 loop compound 49 (peptide)
peptide: Palmitoyl-MGYQKKLRSMTDKYRI-NH2
SMILES: CCCCCCCCCCCCCCCC(=O)N[C@@H](CCSC)C(=O)NCC(=O)N[C@@H](Cc1ccc(O)cc1)C(=O)N[C@@H](CCC(N)=O)C(=O)N[C@@H](CCCCN)C(=O)N[C@@H](CCCCN)C(=O)N[C@@H](CC(C)C)C(=O)N[C@@H](CCCNC(=N)N)C(=O)N[C@@H](CO)C(=O)N[C@@H](CCSC)C(=O)N[C@H](C(=O)N[C@@H](CC(=O)O)C(=O)N[C@@H](CCCCN)C(=O)N[C@@H](Cc1ccc(O)cc1)C(=O)N[C@@H](CCCNC(=N)N)C(=O)N[C@H](C(N)=O)[C@@H](C)CC)[C@@H](C)O
B11: CXCR4 i1 loop compound 54 (peptide)
peptide: MGYQKKLRSMTDKYRLHL-NH2
modifications: not fully specified (N-terminus); also: N-terminal T-L: Myr, dual lipid backbone
B12: CXCR4 i1 loop compound 59 (peptide)
peptide: Ac-MGYQKKLRSMTDK-NHhexadecyl
SMILES: CCCCCCCCCCCCCCCCNC(=O)[C@H](CCCCN)NC(=O)[C@H](CC(=O)O)NC(=O)[C@@H](NC(=O)[C@H](CCSC)NC(=O)[C@H](CO)NC(=O)[C@H](CCCNC(=N)N)NC(=O)[C@H](CC(C)C)NC(=O)[C@H](CCCCN)NC(=O)[C@H](CCCCN)NC(=O)[C@H](CCC(N)=O)NC(=O)[C@H](Cc1ccc(O)cc1)NC(=O)CNC(=O)[C@H](CCSC)NC(C)=O)[C@@H](C)O
B13: Compound No. 44 (Pal-KKLRSMTDKYRL-amide) (peptide)
peptide: Palmitoyl-KKLRSMTDKYRL-NH2
SMILES: CCCCCCCCCCCCCCCC(=O)N[C@@H](CCCCN)C(=O)N[C@@H](CCCCN)C(=O)N[C@@H](CC(C)C)C(=O)N[C@@H](CCCNC(=N)N)C(=O)N[C@@H](CO)C(=O)N[C@@H](CCSC)C(=O)N[C@H](C(=O)N[C@@H](CC(=O)O)C(=O)N[C@@H](CCCCN)C(=O)N[C@@H](Cc1ccc(O)cc1)C(=O)N[C@@H](CCCNC(=N)N)C(=O)N[C@@H](CC(C)C)C(N)=O)[C@@H](C)O

molecular target: CXCR4 receptor (human, UniProt P61073 1-352); experiment: cell-based or functional assay
Sequence (P61073 whole entry): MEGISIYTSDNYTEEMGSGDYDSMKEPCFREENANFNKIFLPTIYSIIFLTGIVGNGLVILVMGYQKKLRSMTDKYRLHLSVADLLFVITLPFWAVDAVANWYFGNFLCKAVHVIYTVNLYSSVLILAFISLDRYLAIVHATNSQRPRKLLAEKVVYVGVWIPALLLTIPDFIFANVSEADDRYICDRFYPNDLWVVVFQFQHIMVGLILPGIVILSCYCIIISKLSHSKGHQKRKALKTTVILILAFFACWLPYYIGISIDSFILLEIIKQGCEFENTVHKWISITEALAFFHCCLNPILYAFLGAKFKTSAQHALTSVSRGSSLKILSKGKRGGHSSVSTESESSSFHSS

In order of rising “AUC (% of), CHTX, SUP B-15, 1.0 uM” value:
1. B13  25.9%
2. B3  31.7%
3. B7  47.4%
4. B2  63.5%
5. B6  70.8%
6. B8  87.2%
7. B1  178%

In order of rising “Max (% of), CHTX, SUP B-15, 1.0 uM” value:
1. B13  31.5%
2. B7  37.6%
3. B3  49.3%
4. B6  55.8%
5. B8  82.9%
6. B2  91.1%
7. B1  194%

In order of rising “Peak Ratio, CHTX, SUP B-15, 1.0 uM” value:
1. B6  0.04
2. B2  0.2
3. B3  0.2
4. B7  0.2
5. B8  0.2
6. B13  0.2
7. B1  1

In order of falling “AUC (% of), CHTX, CEM, 1.0 uM” value:
1. B5  102%
2. B9  100%
3. B2  92.3%
4. B12  69%
5. B3  57.9%
6. MGYQKKLRSMTDKYRI-NH2 (not fully specified (N-terminus); also: further groups not given here) [CXCR4 i1 loop compound 48]  53%
7. B10  50.9%
8. B7  37.5%

In order of falling “Max (% of), CHTX, CEM, 1.0 uM” value:
1. B5  119%
2. B2  97.8%
3. B9  93.1%
4. B12  84.5%
5. B10  62.7%
6. B7  59.7%
7. B3  57%
8. MGYQKKLRSMTDKYRI-NH2 (not fully specified (N-terminus); also: further groups not given here) [CXCR4 i1 loop compound 48]  53.5%

In order of falling “Peak Ratio, CHTX, CEM, 1.0 uM” value:
1. MGYQKKLRSMTDKYRI-NH2 (not fully specified (N-terminus); also: further groups not given here) [CXCR4 i1 loop compound 48]  5
2. B3  1
3. B9  1
4. B11  1
5. MGYQKKLRSMTD-NH2 (not fully specified (N-terminus); also: further groups not given here) [CXCR4 i1 loop compound 33]  1
6. B12  1
7. B4  0.2
8. B5  0.2
9. B10  0.2
10. B2  0.04
11. B7  0.04

In the case of B5, the “Peak Ratio, CHTX, SUP B15, 1.0 uM” value is reported as 0.2.

With B6 the “Peak Ratio, CHTX, CEM, 0.01 uM” value was 1.

For B6, the “Peak Ratio, CHTX, CEM, 0.03 uM” value was 1.

With B6 the “Peak Ratio, CHTX, CEM, 0.1 uM” value was 0.2.

B6 was tested, and the “Peak Ratio, CHTX, CEM, 0.3 uM” value was 0.04.

B6 was tested, and the “Peak Ratio, CHTX, CEM, 3.0 uM” value was 0.2.

For B12, the “AUC (% of), CHTX, CEM, 1.0 um” value was 51.6%.

With B12 the “Max (% of), CHTX, CEM, 1.0 um” value was 59.8%.

For B12, the “Peak Ratio, CHTX, CEM, 1.0 um” value was 1.
